The target in assay [1] is avi-β1AR-W (turkey β1-adrenergic receptor β1AR-MetΔ5, thermostabilised with E130W, N-terminal biotinylated avi-tag) (turkey) (UniProt P07700). Put plainly: BLI; biotinylated avi-tagged receptor in LMNG immobilised on streptavidin biosensors; 500 μM salbutamol (partial agonist); mini-Gs in solution at a single concentration (1 or 2 μM); 20 mM TrisHCl pH 8.0, 150 mM NaCl, 15 mM MgCl2, 0.02% LMNG, 0.1% BSA; 25 °C; 1:1 monophasic local partial fit; one of n = 3 tips. On the technique in general: BLI is a label-free optical method that tracks binding on a fibre tip over time.
Chain of avi-β1AR-W (turkey β1-adrenergic receptor β1AR-MetΔ5, thermostabilised with E130W, N-terminal biotinylated avi-tag) (turkey) (P07700 other isoform, or with tags, fused parts or gaps with the stated changes): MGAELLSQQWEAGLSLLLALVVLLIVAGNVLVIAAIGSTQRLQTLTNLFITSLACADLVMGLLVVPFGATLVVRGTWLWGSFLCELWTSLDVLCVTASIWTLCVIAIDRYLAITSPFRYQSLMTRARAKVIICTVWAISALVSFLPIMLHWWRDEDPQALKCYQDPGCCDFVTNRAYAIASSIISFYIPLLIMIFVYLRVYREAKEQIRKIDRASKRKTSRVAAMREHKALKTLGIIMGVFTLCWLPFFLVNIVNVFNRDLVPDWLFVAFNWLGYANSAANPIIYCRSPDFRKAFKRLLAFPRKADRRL

Assay [2] addresses avi-β1AR-E (turkey β1-adrenergic receptor, minimally thermostabilised construct with E130 restored, N-terminal biotinylated avi-tag) (turkey) (UniProt P07700). The description is as above.
In assay [3] the target is avi-β1AR-W (turkey β1-adrenergic receptor β1AR-MetΔ5, thermostabilised with E130W, N-terminal biotinylated avi-tag) (turkey) (UniProt P07700). Put plainly: BLI; biotinylated avi-tagged receptor in LMNG immobilised on streptavidin biosensors; 500 μM xamoterol (partial agonist); mini-Gs in solution at 4 μM (column 4); 20 mM TrisHCl pH 8.0, 150 mM NaCl, 15 mM MgCl2, 0.02% LMNG, 0.1% BSA; 25 °C; 1:1 monophasic local partial fit; each row one of n = ….

In assay [4] the target is avi-β1AR-E (turkey β1-adrenergic receptor, minimally thermostabilised construct with E130 restored, N-terminal biotinylated avi-tag) (turkey) (UniProt P07700). Described as above.
Chain of avi-β1AR-E (turkey β1-adrenergic receptor, minimally thermostabilised construct with E130 restored, N-terminal biotinylated avi-tag) (turkey) (P07700 other isoform, or with tags, fused parts or gaps with the stated changes): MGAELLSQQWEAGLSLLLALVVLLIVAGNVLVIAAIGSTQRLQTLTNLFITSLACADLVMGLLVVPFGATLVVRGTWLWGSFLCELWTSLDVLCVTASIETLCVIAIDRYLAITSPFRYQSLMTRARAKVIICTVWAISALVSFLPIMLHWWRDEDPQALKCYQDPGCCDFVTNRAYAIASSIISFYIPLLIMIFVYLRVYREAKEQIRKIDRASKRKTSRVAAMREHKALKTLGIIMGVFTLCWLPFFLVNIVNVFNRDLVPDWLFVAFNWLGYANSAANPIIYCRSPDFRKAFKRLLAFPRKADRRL
Assay [5] concerns the target avi-β1AR-W (turkey β1-adrenergic receptor β1AR-MetΔ5, thermostabilised with E130W, N-terminal biotinylated avi-tag) (turkey) (UniProt P07700). Put plainly: BLI; biotinylated avi-tagged receptor in LMNG immobilised on streptavidin biosensors; 500 μM isoprenaline; mini-G in solution at a single concentration (0.125-4 μM); 20 mM TrisHCl pH 8.0, 150 mM NaCl, 15 mM MgCl2, 0.02% LMNG, 0.1% BSA; 25 °C; 1:1 monophasic local partial fit; one of n = 3 tips.

The target of assay [6] is avi-β1AR-E (turkey β1-adrenergic receptor, minimally thermostabilised construct with E130 restored, N-terminal biotinylated avi-tag) (turkey) (UniProt P07700). The assay is described as above.

Drawing on paper PMC10864275, “Binding kinetics drive G protein subtype selectivity at the β1-adrenergic receptor” (Nature Communications, 2024), this text covers Kd for one substance.

Values joined by “and” are separate entries in the source; they are usually repeats but may differ in a detail not shown here. Identical values can stand only once.

On to mini-Gs 393 C96A (domain or fragment), for which the Kd was 1440 nM in assay [1]; 977 nM and 962 nM and 946 nM in assay [2]; 3060 nM and 2950 nM and 2900 nM in assay [3]; 2370 nM and 2320 nM and 2400 nM in assay [4]; 173 nM and 170 nM and 141 nM in assay [5]; 42.9 nM and 46.3 nM and 51.2 nM in assay [6].

By Kd is commonly meant the constant that tells how readily two partners part at equilibrium.
